Data: US20150267232A1, “IN VIVO AND IN VITRO CARBENE INSERTION AND NITRENE TRANSFER REACTIONS CATALYZED BY HEME ENZYMES” (California Institute of Technology, priority 2012, published 2015)

Assays:
[1] = Small-scale anaerobic C—H amination with purified enzymes, azide 4; assay type: biochemical; conditions: free hemin, 1% loading
Method: Hemin also was capable of catalyzing this reaction when reduced with dithionite (Table 13).
Small scale reactions containing either 0.1% loading of ABC-CIS or ABC-T268A or 1% loading of hemin with azides 1, 4, or 6 according to standard procedures.
Small-scale reactions (400 μL) were conducted in 2 mL crimp vials (Agilent Technologies, San Diego, Calif.) containing buffer (0.1 M potassium phosphate pH 8.0), enzyme (0.1-0.5% catalyst loading) and oxygen depletion system (10× stock solution containing 14,000 U/mL catalase, 1,000 U/mL glucose oxidase dissolved in 0.1 M KPi pH 8.0). Enzyme (P450 or P411) solution and oxygen depletion mixture were added to the vial with a small stir bar before crimp-sealing. Portions of phosphate buffer (190 μL, 0.1 M, pH=8.0), glucose (40 μL, 250 mM) and NADPH (40 μL, 20 mM), or multiples thereof, were combined in a larger crimp sealed vial and degassed by sparging with argon for at least 5 min. In the meantime, the headspace of the sealed 2 mL reaction vial with the P450 solution was made anaerobic by flushing argon over the protein solution (with no bubbling). The buffer/reductant/glucose solution (270 μL) was syringed into the reaction vial with continuous argon purge of the vial headspace. An arylsulfonyl azide solution in DMSO (10 μL, 80 mM) was added to the reaction vial via a glass syringe, and the reaction was left stirring for 24 h at room temperature under positive argon pressure. Final concentrations of the reagents were typically: 2 mM arylsulfonyl azide, 2 mM NADPH, 25 mM glucose, 2 or 10 μM P450. Reactions were quenched by adding 30 μL 3 M HCl under argon. To the vials were then added acetonitrile (430 uL) and internal standard (o-toluenesulfonamide 10 mM in 50% acetonitrile 50% water, 1 mM final concentration). […] A portion (20 μL) of the supernatant was then analyzed by HPLC. […] Sultam formation was quantified comparison of integrated peak areas of internal standard and sultam at 220 nm to a calibration curve made using synthetically produced sultam and internal standard.

[2] = Whole-cell C—H amination of azide 1; assay type: cell-based, E. coli BL21(DE3); conditions: intact E. coli cells; for Yield sulfonamide (%) / Yield sultam (%): OD600=30, 2 mM azide 1, 24 hours; for Yield sulfonamide (%) / Yield sultam (%) / TTN: anaerobic; for TTN: added glucose
Method: Reaction conditions were as follows: 2 mM azide 1, 25 mM glucose, E. coli BL21(DE3) cells in M9-N minimal medium (OD600=30), 2.5% DMSO, oxygen depletion system (100 U ml^−1 glucose oxidase, 1400 U ml^−1 catalase) reacted for 24 hours under anaerobic conditions at 298 K. Yields determined by HPLC quantification.
(§1) Whole cell reactions used E. coli BL21(DE3) cells containing P450 or P411 catalysts, which were expressed and prepared as described elsewhere (Coelho, P. S. et al., Highly efficient carbene transfer to olefins catalyzed in vivo. Submitted (2013)). Following expression, cells were resuspended to an OD600 of 30 in M9 salts lacking NH4Cl (M9-N), and then degassed by sparging with argon in a sealed 6 mL crimp vial for at least 0.5 h. Separately, glucose (250 mM dissolved in 1×M9-N, 40 μL, or multiples thereof) was degassed by sparging with argon for at least five minutes. The oxygen quenching mixture was added to sealed 2 mL crimp vials containing stir bars and the headspace of the vials was purged with argon for five minutes at which time glucose, and then cells were added by syringe. Substrate (80 mM arylsulfonyl azide, 10 uL in DMSO) was added via syringe, and the reactions were stirred at room temperature for 24 h under positive argon pressure.
as §1, with “E.” for “Whole cell reactions used E.”, “catalysts” for “catalysts, which”, “Coelho,” for “(Coelho,”, “μL” for “uL”, “pressure. Reactions were quenched in a manner identical to reactions containing purified enzymes as described above. For chiral HPLC, the reactions were extracted and purified in an identical manner as for reactions that employed purified enzymes. Lyophilized intact cells containing sucrose as a cryoprotectant were prepared as described elsewhere (Coelho, P. S. et al., Highly efficient carbene transfer to olefins catalyzed in vivo. Submitted (2013)). The resulting cell powder, containing expressed ABC-CIS (26 mg) were added along with a stir bar to a 2 mL crimp vial and then sealed. The headspace of the vial was degassed, oxygen quenching system (40 μL) was added via syringe, followed by degassed glucose (250 mM, 40 μL), M9-N (310 μL), and finally substrate (80 mM 1, 10 μL). Lyophilized cell reactions were stirred for 24 h at room temperature, then quenched and analyzed as described above. […]” for “pressure.”
The preparative reaction was scaled up proportionally from small-scale reactions. E. coli BL21 cells containing ABC-CIS (OD600 30, 90 mL in M9-N) were sparged with argon for 45 minutes in a round bottom flask (250 mL) containing a stir bar. Separately, glucose solution (250 mM, 11.6 mL) was sparged with argon in a conical flask. The oxygen quenching mixture (10×, 11.6 mL) was degassed in a conical flask that was placed under high vacuum until slight foaming occurred (1-2 s) and then back-filled with argon; this sequence was repeated several times. Sparged glucose solution was then added to the anaerobic cell suspension via syringe, followed by the oxygen quenching system. Finally, substrate 1 (80 mM, 2.9 mL DMSO) was added dropwise via syringe, and the reaction was stirred for 24 h at room temperature. To quench the reaction, dilute HCl (3 M, 8.7 mL) and acetonitrile (125 mL) were added. […]

Row | Molecule | activity on substrate 4 [1] | Yield sulfonamide (%) [2] | Yield sultam (%) [2] | TTN [2] | % ee ([2]; (S − R)/(S + R))
1 | hemin | no measurable activity | – | – | – | –
2 | P450BM3: wild-type cytochrome P450BM3 from Bacillus megaterium (SEQ ID NO: 1) (protein, listed as Bacillus megaterium, cytochrome P450NADPH-P-450 reductase precursor, cytochrome P450 (BM3), CYP102A1) TIKEMPQPKTFGELKNLPLLNTDKPVQALMKIADELGEIFKFEAPGRVTRYLSSQRLIKEACDESRFDKNLSQALKFVRDFAGDGLFTSWTHEKNWKKAHNILLPSFSQQAMKGYHAMMVDIAVQLVQKWERLNADEHIEVPEDMTRLTLDTIGLCGFNYRFNSFYRDQPHPFITSMVRALDEAMNKLQRANPDDPAYDENKRQFQEDIKVMNDLVDKIIADRKASGEQSDDLLTHMLNGKDPETGEPLDDENIRYQIITFLIAGHETTSGLLSFALYFLVKNPHVLQKAAEEAARVLVDPVPSYKQVKQLKYVGMVLNEALRLWPTAPAFSLYAKEDTVLGGEYPLEKGDELMVLIPQLHRDKTIWGDDVEEFRPERFENPSAIPQHAFKPFGNGQRACIGQQFALHEATLVLGMMLKHFDFEDHTNYELDIKETLTLKPEGFVVKAKSKKIPLGGIPSPSTEQSAKKVRKKAENAHNTPLLVLYGSNMGTAEGTARDLADIAMSKGFAPQVATLDSHAGNLPREGAVLIVTASYNGHPPDNAKQFVDWLDQASADEVKGVRYSVFGCGDKNWATTYQKVPAFIDETLAAKGAENIADRGEADASDDFEGTYEEWREHMWSDVAAYFNLDIENSEDNKSTLSLQFVDSAADMPLAKMHGAFSTNVVASKELQQPGSARSTRHLEIELPKEASYQEGDHLGVIPRNYEGIVNRVTARFGLDASQQIRLEAEEEKLAHLPLAKTVSVEELLQYVELQDPVTRTQLRAMAAKTVCPPHKVELEALLEKQAYKEQVLAKRLTMLELLEKYPACEMKFSEFIALLPSIRPRYYSISSSPRVDEKQASITVSVVSGEAWSGYGEYKGIASNYLAELQEGDTITCFISTPQSEFTLPKDPETPLIMVGPGTGVAPFRGFVQARKQLKEQGQSLGEAHLYFGCRSPHEDYLYQEELENAQSEGIITLHTAFSRMPNQPKTYVQHVMEQDGKKLIELLDQGAHFYICGDGSQMAPAVEATLMKSYADVHQVSEADARLWLQQLEEKGRYAKDVWAG | – | 33% | 0.5% | 5.1 | –
3 | BM3-T268A: P450BM3 variant: T268A (protein, listed as Bacillus megaterium, cytochrome P450NADPH-P-450 reductase precursor, cytochrome P450 (BM3), CYP102A1) TIKEMPQPKTFGELKNLPLLNTDKPVQALMKIADELGEIFKFEAPGRVTRYLSSQRLIKEACDESRFDKNLSQALKFVRDFAGDGLFTSWTHEKNWKKAHNILLPSFSQQAMKGYHAMMVDIAVQLVQKWERLNADEHIEVPEDMTRLTLDTIGLCGFNYRFNSFYRDQPHPFITSMVRALDEAMNKLQRANPDDPAYDENKRQFQEDIKVMNDLVDKIIADRKASGEQSDDLLTHMLNGKDPETGEPLDDENIRYQIITFLIAGHEATSGLLSFALYFLVKNPHVLQKAAEEAARVLVDPVPSYKQVKQLKYVGMVLNEALRLWPTAPAFSLYAKEDTVLGGEYPLEKGDELMVLIPQLHRDKTIWGDDVEEFRPERFENPSAIPQHAFKPFGNGQRACIGQQFALHEATLVLGMMLKHFDFEDHTNYELDIKETLTLKPEGFVVKAKSKKIPLGGIPSPSTEQSAKKVRKKAENAHNTPLLVLYGSNMGTAEGTARDLADIAMSKGFAPQVATLDSHAGNLPREGAVLIVTASYNGHPPDNAKQFVDWLDQASADEVKGVRYSVFGCGDKNWATTYQKVPAFIDETLAAKGAENIADRGEADASDDFEGTYEEWREHMWSDVAAYFNLDIENSEDNKSTLSLQFVDSAADMPLAKMHGAFSTNVVASKELQQPGSARSTRHLEIELPKEASYQEGDHLGVIPRNYEGIVNRVTARFGLDASQQIRLEAEEEKLAHLPLAKTVSVEELLQYVELQDPVTRTQLRAMAAKTVCPPHKVELEALLEKQAYKEQVLAKRLTMLELLEKYPACEMKFSEFIALLPSIRPRYYSISSSPRVDEKQASITVSVVSGEAWSGYGEYKGIASNYLAELQEGDTITCFISTPQSEFTLPKDPETPLIMVGPGTGVAPFRGFVQARKQLKEQGQSLGEAHLYFGCRSPHEDYLYQEELENAQSEGIITLHTAFSRMPNQPKTYVQHVMEQDGKKLIELLDQGAHFYICGDGSQMAPAVEATLMKSYADVHQVSEADARLWLQQLEEKGRYAKDVWAG | – | 51% | 7.8% | 26 | 84%
